Target: human DII4 (delta-like ligand 4) (human, UniProt Q9NR61 27-524, limits assumed)
Experiment: cell-based or functional assay

human DII4 (delta-like ligand 4), sequence (Q9NR61 27-524 limits assumed, stated change not applied): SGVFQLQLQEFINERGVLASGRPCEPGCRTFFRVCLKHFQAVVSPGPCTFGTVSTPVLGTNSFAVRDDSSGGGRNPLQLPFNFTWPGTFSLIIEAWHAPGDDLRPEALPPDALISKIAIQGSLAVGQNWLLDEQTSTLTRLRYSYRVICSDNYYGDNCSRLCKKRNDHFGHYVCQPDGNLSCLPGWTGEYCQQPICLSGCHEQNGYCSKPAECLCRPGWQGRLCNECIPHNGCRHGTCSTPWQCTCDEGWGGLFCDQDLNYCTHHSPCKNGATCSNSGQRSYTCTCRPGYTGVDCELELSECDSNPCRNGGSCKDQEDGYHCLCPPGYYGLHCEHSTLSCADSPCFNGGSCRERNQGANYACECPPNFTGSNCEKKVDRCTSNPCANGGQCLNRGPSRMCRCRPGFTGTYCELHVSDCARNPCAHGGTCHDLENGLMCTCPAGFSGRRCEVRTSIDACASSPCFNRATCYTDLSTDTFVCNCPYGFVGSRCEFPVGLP

B1: REGN421 (antibody, V domains shown)
VH: QVQLVESGGGVVQPGRSLRLSCAASGFTFSSYGMHWVRQAPGKGLEWVSFLWYDGTNKNYVESVKGRFTISRDNSKNMLYLEMNSLRAEDTAVYYCARDHDFRSGYEGWFDPWGQGTLVTVSS
VL: EIVLTQSPATLSLSPGERATLSCRASQSVSSYLAWYQQKPGQAPRLLIYDASNRATGIPARFSGSGSGTDFTLTISSLEPEDFAVYYCQHRSNWPPTFGGGTKVEIK
- Hey-1 transcript, Post-treatment vs. Pre-treatment ratio (microarray, patient 1, dose 0.25 mg/kg, 24 hours after REGN421 administration): 0.52 ratio
- Hey-1 transcript, Post-treatment vs. Pre-treatment ratio (microarray, patient 2, dose 0.25 mg/kg, 24 hours after REGN421 administration): 0.85 ratio
- Hey-1 transcript, Post-treatment vs. Pre-treatment ratio (microarray, patient 3, dose 0.25 mg/kg, 24 hours after REGN421 administration): 0.77 ratio
- Hey-1 transcript, Post-treatment vs. Pre-treatment ratio (microarray, patient 4, dose 0.25 mg/kg, 24 hours after REGN421 administration): 0.51 ratio
- Hey-1 transcript, Post-treatment vs. Pre-treatment ratio (microarray, patient 5, dose 0.25 mg/kg, 24 hours after REGN421 administration): 0.61 ratio
- Hey-1 transcript, Post-treatment vs. Pre-treatment ratio (microarray, patient 6, dose 0.25 mg/kg, 24 hours after REGN421 administration): 0.55 ratio
- Hey-1 transcript, Post-treatment vs. Pre-treatment ratio (microarray, patient 7, dose 0.25 mg/kg, 24 hours after REGN421 administration): 0.75 ratio
- Hey-1 transcript, Post-treatment vs. Pre-treatment ratio (microarray, patient 8, dose 0.5 mg/kg, 24 hours after REGN421 administration): 0.68 ratio
- Hey-1 transcript, Post-treatment vs. Pre-treatment ratio (microarray, patient 9, dose 0.5 mg/kg, 24 hours after REGN421 administration): 0.82 ratio

From patent US20100330106A1 (Regeneron, published 2010)
